US12006368 (SURROZEN OPERATING, dated 2024)

Key:
[1] = molecular target: T1, Fzd1 cysteine rich domain (CRD), C-terminally biotinylated (human, UniProt Q9UP38 101-230); experiment: BLI; **=Kd 100-2000 nM
Description: (§1) Binding kinetics of antibody fragments to a variety of Fzd cysteine rich domain (CRD) protein targets (Fzd1, Fzd2, Fzd3, Fzd4, Fzd5, Fzd6, Fzd7, Fzd8, Fzd9 and/or Fzd10 CRDs) was determined by bio-layer interferometry (BLI) using Octet Red 96 (PALL ForteBio, Fremont, CA) instruments at 30° C., 1000 rpm with streptavidin (SA) biosensors. C-terminal biotinylated Fzd CRD recombinant protein was diluted to 20 nM in the running buffer (PBS, 0.05% Tween-20, 0.5% BSA, pH 7.2) and captured to the SA biosensor until coupling length reached 0.2 nm. Following capture of the Fzd CRD, the SA biosensor with captured biotinylated-Fzd CRD was dipped into wells containing the relevant antibody fragment at […] (0, 1.37, 4.12, 12.4, 37, 111.1, 333.3, 1000 nM) in running buffer, plus a well with only running buffer as a reference channel. […] was determined by global fitting, 1:1 binding model according to manufacturer recommended settings.
(§2) Table 1B provides clone IDs, the sequence identifier number of the antibody heavy chain fragment and/or light chain fragment, if present, for illustrative clones. In certain embodiments, the Fzd binding domain is an Fab or was derived from an Fab, so the heavy chain of Table 1B includes VH and CH1 sequence, but not CH2 or CH3 sequences. In certain embodiments, the Fzd binding domain is a VHH or sdAb® or was derived from a VHH or sdAb, so Table 1B includes the VHH domain. […] The Kd values were determined by BLI as described above. Blank entries denote that the binding to the specific Fzd receptor has not yet been determined. The entry of "n.b." indicates no binding.

[2] = molecular target: T1, Fzd1 cysteine rich domain (CRD), …; experiment: BLI; *=Kd <=100 nM
Description: as §1
One antibody fragment, clone 001S-A04, was selected for alanine-scanning mutagenesis of CDRs, and the respective Fzd1 binding affinities of the various mutants were determined by Octet BLI as described in Example 1.

[3] = molecular target: T1, Fzd1 cysteine rich domain (CRD), …; experiment: BLI
Description: as §1, §2

[4] = molecular target: Fzd2 cysteine rich domain (CRD), C-terminally biotinylated (human, UniProt Q14332 24-155); experiment: BLI
Description: as §1, §2

KD [2] [nM] | Binder | other results
 | 002S-F03 (VHH) VHH: AVQLVESGGGLVQAGGPLRLSCAASGRTSSSYAMGWFRQAPGKEREFVAAISWSGGSTYYADSVKGRFTISRDNAKNTVYLQMDSPIPEDTAVYYCAAGPIARWYRGDMDYWGKGTLVTVSS | Kd [1]: 100 to 2000 nM
≤ 100 | 001S-A04 mutant VHG10A (Fab, V domains shown) VH: EVQLVQSGAEVKKPGASVKVSCKASGYTFTSYGISWVRQAPGQGLEWMGWISAYNGNTNYAQKLQGRVTMTTDTSTSTAYMELRSLRSDDTAVYYCASSKEKATYYYAMDVWGQGTTVTVSS VL: QAVVLQEPSLSVSPGGTVTLTCGLSSGSVSTNYYPSWYQQTPGQAPRTLIYYTNTRSSDVPERFSGSIVGNKAALTITGAQPDDESVYFCLLYLGRGIWVFGGGTKLTVLG | 
≤ 100 | 001S-A04 mutant VHV13A (Fab, V domains shown) VH: EVQLVQSGAEVKKPGASVKVSCKASGYTFTSYGISWVRQAPGQGLEWMGWISAYNGNTNYAQKLQGRVTMTTDTSTSTAYMELRSLRSDDTAVYYCASSKEKATYYYGMDAWGQGTTVTVSS VL: QAVVLQEPSLSVSPGGTVTLTCGLSSGSVSTNYYPSWYQQTPGQAPRTLIYYTNTRSSDVPERFSGSIVGNKAALTITGAQPDDESVYFCLLYLGRGIWVFGGGTKLTVLG | 
≤ 100 | 001S-A04 mutant VHK2A (Fab, V domains shown) VH: EVQLVQSGAEVKKPGASVKVSCKASGYTFTSYGISWVRQAPGQGLEWMGWISAYNGNTNYAQKLQGRVTMTTDTSTSTAYMELRSLRSDDTAVYYCASSAEKATYYYGMDVWGQGTTVTVSS VL: QAVVLQEPSLSVSPGGTVTLTCGLSSGSVSTNYYPSWYQQTPGQAPRTLIYYTNTRSSDVPERFSGSIVGNKAALTITGAQPDDESVYFCLLYLGRGIWVFGGGTKLTVLG | 
≤ 100 | 001S-A04 mutant VLI8A (Fab, V domains shown) VH: EVQLVQSGAEVKKPGASVKVSCKASGYTFTSYGISWVRQAPGQGLEWMGWISAYNGNTNYAQKLQGRVTMTTDTSTSTAYMELRSLRSDDTAVYYCASSKEKATYYYGMDVWGQGTTVTVSS VL: QAVVLQEPSLSVSPGGTVTLTCGLSSGSVSTNYYPSWYQQTPGQAPRTLIYYTNTRSSDVPERFSGSIVGNKAALTITGAQPDDESVYFCLLYLGRGAWVFGGGTKLTVLG | 
≤ 100 | 001S-A04 mutant VLL2A (Fab, V domains shown) VH: EVQLVQSGAEVKKPGASVKVSCKASGYTFTSYGISWVRQAPGQGLEWMGWISAYNGNTNYAQKLQGRVTMTTDTSTSTAYMELRSLRSDDTAVYYCASSKEKATYYYGMDVWGQGTTVTVSS VL: QAVVLQEPSLSVSPGGTVTLTCGLSSGSVSTNYYPSWYQQTPGQAPRTLIYYTNTRSSDVPERFSGSIVGNKAALTITGAQPDDESVYFCLAYLGRGIWVFGGGTKLTVLG | 
≤ 100 | 001S-A04 mutant VLG7A (Fab, V domains shown) VH: EVQLVQSGAEVKKPGASVKVSCKASGYTFTSYGISWVRQAPGQGLEWMGWISAYNGNTNYAQKLQGRVTMTTDTSTSTAYMELRSLRSDDTAVYYCASSKEKATYYYGMDVWGQGTTVTVSS VL: QAVVLQEPSLSVSPGGTVTLTCGLSSGSVSTNYYPSWYQQTPGQAPRTLIYYTNTRSSDVPERFSGSIVGNKAALTITGAQPDDESVYFCLLYLGRAIWVFGGGTKLTVLG | 
≤ 100 | 001S-A04 mutant VLR6A (Fab, V domains shown) VH: EVQLVQSGAEVKKPGASVKVSCKASGYTFTSYGISWVRQAPGQGLEWMGWISAYNGNTNYAQKLQGRVTMTTDTSTSTAYMELRSLRSDDTAVYYCASSKEKATYYYGMDVWGQGTTVTVSS VL: QAVVLQEPSLSVSPGGTVTLTCGLSSGSVSTNYYPSWYQQTPGQAPRTLIYYTNTRSSDVPERFSGSIVGNKAALTITGAQPDDESVYFCLLYLGAGIWVFGGGTKLTVLG | 
≤ 100 | 001S-A04 mutant VLL4A (Fab, V domains shown) VH: EVQLVQSGAEVKKPGASVKVSCKASGYTFTSYGISWVRQAPGQGLEWMGWISAYNGNTNYAQKLQGRVTMTTDTSTSTAYMELRSLRSDDTAVYYCASSKEKATYYYGMDVWGQGTTVTVSS VL: QAVVLQEPSLSVSPGGTVTLTCGLSSGSVSTNYYPSWYQQTPGQAPRTLIYYTNTRSSDVPERFSGSIVGNKAALTITGAQPDDESVYFCLLYAGRGIWVFGGGTKLTVLG | 
≤ 100 | 001S-A04 mutant VLY3A (Fab, V domains shown) VH: EVQLVQSGAEVKKPGASVKVSCKASGYTFTSYGISWVRQAPGQGLEWMGWISAYNGNTNYAQKLQGRVTMTTDTSTSTAYMELRSLRSDDTAVYYCASSKEKATYYYGMDVWGQGTTVTVSS VL: QAVVLQEPSLSVSPGGTVTLTCGLSSGSVSTNYYPSWYQQTPGQAPRTLIYYTNTRSSDVPERFSGSIVGNKAALTITGAQPDDESVYFCLLALGRGIWVFGGGTKLTVLG | 
≤ 100 | 001S-A04 mutant VLG5A (Fab, V domains shown) VH: EVQLVQSGAEVKKPGASVKVSCKASGYTFTSYGISWVRQAPGQGLEWMGWISAYNGNTNYAQKLQGRVTMTTDTSTSTAYMELRSLRSDDTAVYYCASSKEKATYYYGMDVWGQGTTVTVSS VL: QAVVLQEPSLSVSPGGTVTLTCGLSSGSVSTNYYPSWYQQTPGQAPRTLIYYTNTRSSDVPERFSGSIVGNKAALTITGAQPDDESVYFCLLYLARGIWVFGGGTKLTVLG | 
≤ 100 | 001S-A04 mutant VHK4A (Fab, V domains shown) VH: EVQLVQSGAEVKKPGASVKVSCKASGYTFTSYGISWVRQAPGQGLEWMGWISAYNGNTNYAQKLQGRVTMTTDTSTSTAYMELRSLRSDDTAVYYCASSKEAATYYYGMDVWGQGTTVTVSS VL: QAVVLQEPSLSVSPGGTVTLTCGLSSGSVSTNYYPSWYQQTPGQAPRTLIYYTNTRSSDVPERFSGSIVGNKAALTITGAQPDDESVYFCLLYLGRGIWVFGGGTKLTVLG | 
≤ 100 | 001S-A04 mutant VLL1A (Fab, V domains shown) VH: EVQLVQSGAEVKKPGASVKVSCKASGYTFTSYGISWVRQAPGQGLEWMGWISAYNGNTNYAQKLQGRVTMTTDTSTSTAYMELRSLRSDDTAVYYCASSKEKATYYYGMDVWGQGTTVTVSS VL: QAVVLQEPSLSVSPGGTVTLTCGLSSGSVSTNYYPSWYQQTPGQAPRTLIYYTNTRSSDVPERFSGSIVGNKAALTITGAQPDDESVYFCALYLGRGIWVFGGGTKLTVLG | 
≤ 100 | 001S-A04 mutant VLV10A (Fab, V domains shown) VH: EVQLVQSGAEVKKPGASVKVSCKASGYTFTSYGISWVRQAPGQGLEWMGWISAYNGNTNYAQKLQGRVTMTTDTSTSTAYMELRSLRSDDTAVYYCASSKEKATYYYGMDVWGQGTTVTVSS VL: QAVVLQEPSLSVSPGGTVTLTCGLSSGSVSTNYYPSWYQQTPGQAPRTLIYYTNTRSSDVPERFSGSIVGNKAALTITGAQPDDESVYFCLLYLGRGIWAFGGGTKLTVLG | 
 | 004S-D08 (Fab, V domains shown) VH: QVQLVQSGAEVKKPGSSVKVSCKASGYTFTYRYLHWVRQAPGQGLEWMGGIIPIFGTANYAQKFQGRVTITADESTSTAYMELSSLRSEDTAVYYCATHDSSGYYSFDYWGQGTLVTVSS VL: not shown | binding result [3]: no binding (tested: 1000 nM); binding result [4]: no binding (tested: 1000 nM)
 | 004S-C09 (Fab, V domains shown) VH: QVQLVQSGAEVKKPGASVKVSCKASGYTFTNNFMHWVRQAPGQGLEWMGGFDPEDGETIYAQKFQGRVTMTRDTSTSTVYMELSSLRSEDTAVYYCARVGRGYSFDYWGQGTLVTVSS VL: not shown | binding result [3]: no binding (tested: 1000 nM); binding result [4]: no binding (tested: 1000 nM)
 | 002S-E02 (VHH) VHH: QVQLVESGGGLVQPGGSLRLSCAASGFTFREYAMTWVRQSPGKRLEWVSGISRDGGRTSYSDSLKGRFTISRDNAKNTLYLQMNNLTPEDTAVYYCAPRVLVTAPSGGMDYWGKGTQVTVSS | Kd [1]: 100 to 2000 nM
